Results published in publication PMC7020240.

Biological target: C-FLuc-MESA MEC construct (wild type) (P. falciparum)
Experiment: split reporter

In the case of “N-FLuc-ANK1 fragment 3 (amino acids 823 - 1375) (domain or fragment)”, the fold increase of relative luciferase activity is reported as 200 fold.
